# Assay results as given in the supplement of paper PMC10567573.
# B1: PLAGL1 (parent)
# chain: EKPPSGTKEKKHQCDHCERCFYTR
# Variants of: B1
# Experiment: protein stability index of a GFP-peptide fusion (GPS, HEK-293T) (PSI 1-6); higher = more stable
# Conditions: c terminus: a fixed tail appended
# 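Note: lentivirally expressed fusions sorted by FACS into six bins by GFP to DsRed ratio, PSI derived from sequencing read proportions per bin multiplied by bin number.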
row,Variant,protein stability index
1,EKPPSGTKEKKHQCDHFERCFYTR [C17F],3.4
2,EKPPSGTKEKKHQCDHVERCFYTR [C17V],4.05
3,EKPPSGTKEKKHQCDHTERCFYTR [C17T],3.48
4,EKPPSGTKEKKHQCDHGERCFYTR [C17G],3.43
5,EKPPSGTKEKKHQCDHYERCFYTR [C17Y],3.15
6,EKPPSGTKEKKHQCDHLERCFYTR [C17L],4
7,EKPPSGTKEKKHQCDHMERCFYTR [C17M],3.63
8,EKPPSGTKEKKHQCDHEERCFYTR [C17E],3.69
9,EKPPSGTKEKKHQCDHRERCFYTR [C17R],3.15
10,EKPPSGTKEKKHQCDHQERCFYTR [C17Q],3.9
11,EKPPSGTKEKKHQCDHHERCFYTR [C17H],3.67
12,EKPPSGTKEKKHQCDHNERCFYTR [C17N],3.76
13,EKPPSGTKEKKHQCDHSERCFYTR [C17S],3.63
14,EKPPSGTKEKKHQCDHKERCFYTR [C17K],4.07
15,EKPPSGTKEKKHQCDHDERCFYTR [C17D],3.97
16,EKPPSGTKEKKHQCDHWERCFYTR [C17W],3.13
17,EKPPSGTKEKKHQCDHIERCFYTR [C17I],3.49
18,EKPPSGTKEKKHQCDHAERCFYTR [C17A],3.71
19,EKPPSGTKEKKHQCDHPERCFYTR [C17P],4.33
20,EKPPSGTKEKKHRCDHCERCFYTR [Q13R],2.77
21,EKPPSGTKEKKHICDHCERCFYTR [Q13I],3.21
22,EKPPSGTKEKKHECDHCERCFYTR [Q13E],4.31
23,EKPPSGTKEKKHGCDHCERCFYTR [Q13G],2.34
24,EKPPSGTKEKKHVCDHCERCFYTR [Q13V],3.17

row,Variant,protein stability index
1,EKPPSGTKEKKHYCDHCERCFYTR [Q13Y],2.73
2,EKPPSGTKEKKHDCDHCERCFYTR [Q13D],4.33
3,EKPPSGTKEKKHSCDHCERCFYTR [Q13S],3.25
4,EKPPSGTKEKKHMCDHCERCFYTR [Q13M],3.55
5,EKPPSGTKEKKHLCDHCERCFYTR [Q13L],3.26
6,EKPPSGTKEKKHPCDHCERCFYTR [Q13P],2.52
7,EKPPSGTKEKKHACDHCERCFYTR [Q13A],3.4
8,EKPPSGTKEKKHHCDHCERCFYTR [Q13H],3.28
9,EKPPSGTKEKKHCCDHCERCFYTR [Q13C],3.19
10,EKPPSGTKEKKHNCDHCERCFYTR [Q13N],3.74
11,EKPPSGTKEKKHWCDHCERCFYTR [Q13W],2.8
12,EKPPSGTKEKKHTCDHCERCFYTR [Q13T],3.29
13,EKPPSGTKEKKHKCDHCERCFYTR [Q13K],3.67
14,EKPPSGTKEKKHFCDHCERCFYTR [Q13F],3.2
15,EKPPSGTKEKKHQCDHCARCFYTR [E18A],3.18
16,EKPPSGTKEKKHQCDHCGRCFYTR [E18G],3.22
17,EKPPSGTKEKKHQCDHCSRCFYTR [E18S],2.42
18,EKPPSGTKEKKHQCDHCLRCFYTR [E18L],2.87
19,EKPPSGTKEKKHQCDHCDRCFYTR [E18D],3.12
20,EKPPSGTKEKKHQCDHCCRCFYTR [E18C],2.69
21,EKPPSGTKEKKHQCDHCKRCFYTR [E18K],2.58
22,EKPPSGTKEKKHQCDHCMRCFYTR [E18M],2.6
23,EKPPSGTKEKKHQCDHCRRCFYTR [E18R],2.79
24,EKPPSGTKEKKHQCDHCNRCFYTR [E18N],2.94

row,Variant,protein stability index
1,EKPPSGTKEKKHQCDHCVRCFYTR [E18V],4.66
2,EKPPSGTKEKKHQCDHCWRCFYTR [E18W],3.41
3,EKPPSGTKEKKHQCDHCTRCFYTR [E18T],3.62
4,EKPPSGTKEKKHQCDHCFRCFYTR [E18F],2.61
5,EKPPSGTKEKKHQCDHCIRCFYTR [E18I],2.63
6,EKPPSGTKEKKHQCDHCPRCFYTR [E18P],4.7
7,EKPPSGTKEKKHQCDHCYRCFYTR [E18Y],2.92
8,EKPPSGTKEKKHQCDHCHRCFYTR [E18H],3.33
9,EKPPSGTKEKKHQCDHCQRCFYTR [E18Q],2.45
10,EKPPSGTKEKKHQCDECERCFYTR [H16E],4.17
11,EKPPSGTKEKKHQCDNCERCFYTR [H16N],4.72
12,EKPPSGTKEKKHQCDWCERCFYTR [H16W],2.9
13,EKPPSGTKEKKHQCDPCERCFYTR [H16P],3.94
14,EKPPSGTKEKKHQCDCCERCFYTR [H16C],2.52
15,EKPPSGTKEKKHQCDYCERCFYTR [H16Y],2.59
16,EKPPSGTKEKKHQCDDCERCFYTR [H16D],4.02
17,EKPPSGTKEKKHQCDKCERCFYTR [H16K],4.02
18,EKPPSGTKEKKHQCDMCERCFYTR [H16M],3.66
19,EKPPSGTKEKKHQCDGCERCFYTR [H16G],4.67
20,EKPPSGTKEKKHQCDRCERCFYTR [H16R],3.49
21,EKPPSGTKEKKHQCDSCERCFYTR [H16S],4.13
22,EKPPSGTKEKKHQCDACERCFYTR [H16A],4.15
23,EKPPSGTKEKKHQCDQCERCFYTR [H16Q],3.82
24,EKPPSGTKEKKHQCDICERCFYTR [H16I],2.76

row,Variant,protein stability index
1,EKPPSGTKEKKHQCDTCERCFYTR [H16T],3.66
2,EKPPSGTKEKKHQCDLCERCFYTR [H16L],3.51
3,EKPPSGTKEKKHQCDVCERCFYTR [H16V],3.08
4,EKPPSGTKEKKHQCDFCERCFYTR [H16F],3.5
5,EKPPSGTKEKYHQCDHCERCFYTR [K11Y],3.81
6,EKPPSGTKEKRHQCDHCERCFYTR [K11R],3.71
7,EKPPSGTKEKQHQCDHCERCFYTR [K11Q],4.28
8,EKPPSGTKEKSHQCDHCERCFYTR [K11S],3.79
9,EKPPSGTKEKEHQCDHCERCFYTR [K11E],4.6
10,EKPPSGTKEKWHQCDHCERCFYTR [K11W],4.32
11,EKPPSGTKEKAHQCDHCERCFYTR [K11A],3.73
12,EKPPSGTKEKTHQCDHCERCFYTR [K11T],3.84
13,EKPPSGTKEKMHQCDHCERCFYTR [K11M],4.04
14,EKPPSGTKEKDHQCDHCERCFYTR [K11D],4.99
15,EKPPSGTKEKIHQCDHCERCFYTR [K11I],3.71
16,EKPPSGTKEKNHQCDHCERCFYTR [K11N],3.63
17,EKPPSGTKEKGHQCDHCERCFYTR [K11G],4.29
18,EKPPSGTKEKHHQCDHCERCFYTR [K11H],4.06
19,EKPPSGTKEKFHQCDHCERCFYTR [K11F],3.67
20,EKPPSGTKEKLHQCDHCERCFYTR [K11L],3.97
21,EKPPSGTKEKPHQCDHCERCFYTR [K11P],3.59
22,EKPPSGTKEKVHQCDHCERCFYTR [K11V],3.86
